# B1: H1009/L395-F1974m: H1009-F1974m (SEQ ID NO:36) heavy chain, L395-kOMT light chain; the anti-IL-8 antibody of Table 29 (antibody)
# heavy: QVQLVESGGGLVQPGGSLRLSCAASGFTFSDYYLSWVRQAPGKGLEWVGLIRNKDNYHTPEYSASVKGRFTISRDDSKNSLYLTMSDLKTEDTAVYYCARENHRYDVELAYWGQGTLVTVSSASTKGPSVFPLAPSSKSTSGGTAALGCLVKDYFPEPVTVSWNSGALTSGVHTFPAVLQSSGLYSLSSVVTVPSSSLGTQTYICNVNHKPSNTKVDKKVEPKSCDKTHTCPPCPAPELRRGPSVFLFPPKPKDTLMISRTPEVTCVVVDVSHEDPEVKFNWYVDGVEVHNAKTKPREEQYNSTYRVVSVLTVLHQDWLNGKEYKCKVSNKGLPSSIEKTISKAKGQPREPQVYTLPPSREEMTKNQVSLTCLVKGFYPSDIAVEWESNGQPENNYKTTPPVLDSDGSFFLYSKLTVDKSRWQQGNVFSCSVLHEALHAHTTRKELSLSP
# light: DIQMTQSPSSLSASVGDRVTITCRASEIIYSYLAWYQQKPGKAPKLLIYKAKTHADGVPSRFSGSGSGTDFTFTISSLQPEDIATYYCKHHFGFPRTFGQGTKVEIKRTVAAPSVFIFPPSDEQLKSGTASVVCLLNNFYPREAKVQWKVDNALQSGNSQESVTEQDSKDSTYSLSSTLTLSKADYEKHKVYACEVTHQGLSSPVTKSFNRGEC
# Columns and labels:
# Type in all cases: in vivo, cynomolgus monkeys
# [1] = tested on: endometriosis nodular lesions and adhesion
# Description: Female cynomolgus monkeys of 8 to 14 years of age with regular sexual cycle (provided by the Tsukuba Primate Research Center at the National Institutes of Biomedical Innovation, Health and Nutrition) were laparotomized under anesthesia during the period corresponding to the luteal phase. The uterine corpus was removed by dissecting in a V shape. Then, the uterine corpus was cut into 5 to 10 mm cubes while leaving the smooth muscle layer of the uterus, and one and two pieces were transplanted onto the right abdominal wall and left abdominal wall (cranial and caudal sides), respectively, in such a manner that the endometrium part is in contact with the peritoneum by suturing with an absorbable suture and formed the transplant. After excision, the uterus was sutured with absorbable suture. Then, the remaining endometrial tissues were finely cut and suspended in 5 ml of 2 ng/ml Hepatocyte Growth Factor solution (R&D systems), and this was seeded in the peritoneal cavity for transplantation, followed by closure of the abdomen. Anesthesia was performed using balanced anesthesia of ketamine/xylazine (mixed at an adequate ratio of about 2:1); however, anesthesia was maintained with isoflurane depending on the maintenance period of anesthesia. The body temperature was maintained and controlled during surgery using a heating pad and the condition was monitored electrocardiographically. The antagonist Antisedan (at roughly the same amount as that of xylazine) and antibiotic cephradine were administered at the time of awakening after surgery. The pain reliever Zalban was administered for two days after surgery, and the monkeys were observed regularly every day to confirm the absence of post-surgical abnormalities. In laparoscopic observation, anesthesia and post-surgical monitoring were also performed in the same way.
# Laparoscopic observation was carried out four months, nine months (3 months after administration), and 12 months (6 months after administration) following the surgical induction of endometriosis described above, and the pathological conditions of endometriosis were assessed as follows.
# The abdomen was incised in the median line under anesthesia, and laparoscopic observation was performed by inserting a trocar and then introducing a laparoscope. The laparoscope was connected to a video system (KARL STORZ) and a monitor. The monitor was used for intraperitoneal observation, and the video system was used for recording. Then, the peritoneal cavity was filled with carbon dioxide gas using Intra-abdominal Insufflation Unit (OLYMPUS) to expand the abdomen, and graduated bars and forceps were inserted from the ventral portion. The size of the lesion was measured using the graduated bar or graduated forceps.
# The sizes (width, height, and depth) of nodular lesions formed by suturing the endometrial tissues were measured and the volumes were calculated based on: width (mm)×height (mm)×depth (mm). The lesions and adhesion formed by seeding endometrial tissues after fine cutting were assessed for the site, area, and depth of adhesion and the size of lesion by laparoscopic observation based on modified r-AFS score modified for monkeys from the r-AFS score for clinical use. […] The item on adhesion to the vesicouterine pouch was added, because in the monkey model, the frequency of adhesion to the urinary bladder is higher than in humans. The method for assessing adhesion to the urinary bladder was the same scoring as that used for adhesion to the Douglas' pouch. • 2. Since monkey's body and organ sizes are smaller than those of humans, the criteria of lesion size scoring were altered to: <3 mm, 3-10 mm, and >10 mm.
# Based on the results of laparoscopic observation four months after induction, the individuals that met the criteria were selected and grouped. The criteria for the selection are as follows: • 1. Engraftment of endometrial transplant confirmed on the laparoscopic observation four months after induction. • 2. […]
# adenomyosis lesions = assay: Adenomyosis complication in surgically-induced endometriosis monkey models; conditions: one case per group, compared to the vehicle group (FIG. 37)
# Description: After the final laparoscopic observation six months after the start of antibody administration in surgically-induced endometriosis monkey models, the uteri collected during autopsy were fixed with 10% neutral buffered formalin and HE-stained for observation. Endometrial tissues analogous to those of adenomyosis were strongly seen in the uterus in one case of the vehicle group as well as in one case of the antibody administration group. […] Thus, the monkeys were considered as being a human adenomyosis complication model, and the endometrial tissues in the myometria of these single cases were compared.
# post-surgical adhesion = assay: Post-surgical adhesion-induced monkey model; set-up: key: ○: Adhesion found; x: No adhesion; conditions: 10 mg/kg i.v. one hour or less after surgery, laparoscopy 24 to 35 days later; individuals #201, #206
# Procedure: To prepare a post-surgical adhesion-induced model, female cynomolgus monkeys 9 to 16 years of age (provided by the Tsukuba Primate Research Center at the National Institutes of Biomedical Innovation, Health and Nutrition) were treated under anesthesia as follows. Anesthesia was performed using balanced anesthesia of ketamine/xylazine (mixed at an adequate ratio of about 2:1) and isoflurane. An incision of 5 to 6 cm was made in the median line of the abdominal wall. After opening the abdomen, a 1-cm incision was made on the uterine corpus and sutured with 4 stitches using a single suture. Then, the whole uterus was brushed five times with gauze. Next, a 1-cm incision was made to the right abdominal wall peritoneal part at 2 cm from the incised median line of the abdominal wall and sutured by running suture with 4 stitches using an absorbable suture. After suture, the sutured part was brushed five times with gauze. Likewise, the peritoneum of left abdominal wall was incised, sutured, and brushed with gauze. Finally, the median line of abdominal wall was sutured by running suture with 10 to 11 stitches. The entire steps were completed in one hour or less. The antagonist Antisedan (in roughly the same amount as that of xylazine) and the antibiotic cephradine were administered at the time of awakening after surgery. Then, the pain reliever Zalban was administered for two days after surgery, and the monkeys were observed regularly every day to confirm the absence of post-surgical abnormalities. At laparoscopic observation, anesthesia and post-surgical monitoring were also performed in the same way.
# The control group was untreated. 24 to 35 days after administration of the anti-IL-8 antibody, laparoscopy was performed to observe the adhesion formed due to incision, suture, and blushing with gauze. The abdomen was incised in the median line under anesthesia, and laparoscopic observation was performed by inserting a trocar and then introducing a laparoscope. The laparoscope was connected to a video system (KARL STORZ) and a monitor. The video system was used for recording, and the monitor was used for intraperitoneal observation. The size of the adhesion was measured using a graduated bar or graduated forceps. The presence, range, and location of adhesion were assessed during laparoscopic observation. […] Although adhesion was found in individual No. 206 in the anti-IL-8 antibody administration group, no adhesion was found in the right and left abdominal wall peritoneum or at the uterine incision site in individual No. 201. […] Those skilled in the art will naturally appreciate that anti-IL-8 antibodies may exert a stronger adhesion formation-preventive effect by appropriately altering the timing of administration or such. […]
# [2] = 10 mg/kg i.v. q4w, six months of administration
# [3] = Table 26, proliferation lesion, per nodular lesion (animals 112, 105, 106, 121, 119, 123; sites R, L1, L2), 10 mg/kg
molecule,measurement,setting,value
B1,"frequency of nodular lesions of type A: proliferative, ≥500 mm3",[1]; [2],0%
same,"frequency of nodular lesions of type B: proliferative, <500 mm^3",[1]; [2],8%
same,frequency of nodular lesions of type C: no change,[1]; [2],33%
same,frequency of nodular lesions of type D: decreased,[1]; [2],58%
same,"number of nodular lesions of type A: proliferative, ≥500 mm3 / lesions analysed",[1]; [2],(0/12)
same,"number of nodular lesions of type B: proliferative, <500 mm^3 / lesions analysed",[1]; [2],(1/12)
same,number of nodular lesions of type C: no change / lesions analysed,[1]; [2],(4/12)
same,number of nodular lesions of type D: decreased / lesions analysed,[1]; [2],7/12 and (7/12)
same,"Atrophy/decrease, stromal cell (P)",[1]; [3],±
same,Decreased insterstitium (P),[1]; [3],±
same,change of size r-AFS score,"[1]; after minus before administration, versus vehicle group (FIG. 35-1)",tended to decrease
same,change of total r-AFS score,"[1]; after minus before administration, versus vehicle group, p=0.0070 (FIG. 35-1)",clearly decreased as compared to the vehicle group
same,change of adhesion score,"[1]; after minus before administration, versus vehicle group, p=0.0096 (FIG. 35-1)",clearly decreased as compared to the vehicle group
same,frequency of deep lesions (endometriosis gland ducts invaded up to the muscle layer of abdominal wall),"[1]; anti-antibody-positive individuals excluded, vehicle group 5/18 lesions",1/11
same,muscle tissue regeneration,[1]; autopsy,"muscle tissue regeneration, which was not seen in the vehicle group, was observed"
same,histopathology of the grafts and grafted sites (HE staining),"[1]; autopsy after final laparoscopic observation, compared to the vehicle group",atrophic changes of proliferative epithelia and stromal cells as well as reduction of the interstitium whose major component is collagenous fibers was observed
same,number of lesions with hemosiderin / lesions,"[1]; autopsy, vehicle group 9/16",4/17
same,frequency of lesions with hemosiderin,"[1]; autopsy, vehicle group 56%",24%
same,total modified r-AFS score before and after administration,"[1]; scores recorded during laparoscopic surgery, Wilcoxon's signed-rank-sum test, P=0.875 (FIG. 35-2)",the score did not change
same,histopathology of adenomyosis lesions in the uterus (HE staining),adenomyosis lesions,atrophy of endometrial epithelia in the adenomyosis lesions as well as reduction and atrophy of stromal cells were observed
same,adhesion at incision site: Abdominal wall Median line,post-surgical adhesion,○
same,adhesion at incision site: Peritoneum (L),post-surgical adhesion,○ and x
same,adhesion at incision site: Peritoneum (R),post-surgical adhesion,○ and x
same,adhesion at incision site: Uterus,post-surgical adhesion,○ and x

# From patent US20240083996A1, “COMPOSITION FOR PROPHYLAXIS OR TREATMENT OF IL-8 RELATED DISEASES” (Chugai Seiyaku Kabushiki Kaisha, priority 2016, published 2024)
